Experimental data as given in the RNAGym collection of RNA variant scans (doi:10.1073/pnas.2313332121).
Fewer inactive variants are shown than the library holds.

B1: TPR 5TU (parent)
chain: GGAUCUUCUCGAUCUAACAAAAAAGACAAAUCUGCCACAAAGCUUGAGAGCAUCUUCGGAUGCAGAGGCGGCAGCCUUCGGUGGCGCGAUAGCGCCAACGUUCUCAACUAUGACACGCAAAACGCGUGCUCCGUUGAAUGGAGUUUAUCAUG

Variants of: B1
Assay: polymerase ribozyme fitness, log enrichment relative to wild type (log ratio); higher = more active; in vitro selection for triplet polymerase activity
How it was run: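 Only genotypes with ≥10 input reads and ≥1 read per output were kept after Illumina sequencing of input and output libraries. These libraries were PCR-built, transcribed mutants of each subunit of a heterodimeric triplet polymerase ribozyme, each put through one triplicate in vitro selection round with frozen incubation at −7 °C, gel excision of extended constructs, streptavidin-bead capture and RT-PCR. Fitness is a logarithmic ratio of genotype enrichment to wild-type enrichment, from inverse-variance-weighted replicate averages, with the logarithm in base 2.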

Point of comparison: U101G A150G, “polymerase ribozyme fitness (log ratio)” value -0.649. Against it:
- A107C A142C — lower, -4.05
- C96G A122U — lower, -1.49
- A120C G141C — higher, -0.144
- C96A C125G — within 0.2 log units, -0.535
- U102G A120U — lower, -1.94
- U101G A115G — within 0.2 log units, -0.695
- A98G G133C — lower, -1.69
- C96G U146C — lower, -1.45
- C105U G124U — higher, -0.374
- U127A G128U — lower, -3.18
- C96A C118U — lower, -1.8
- C99A U135A — lower, -2.77
- U102A — lower, -0.854
- U102G — lower, -2.51
- U102C — within 0.2 log units, -0.787
- A121C A137U A147G — lower, ≤ -4.2
- C114A G140A U148G — lower, ≤ -4.2
- C125U U134A — lower, -1.89
- C118G A142G — lower, -1.54
- U127G G140A — lower, -4.15
- U104C G124U C125A G143U — lower, -3.85
- A97C A119G — higher, 0.72
- C96U A98G — lower, -1.3
- C96U A119U — within 0.2 log units, -0.778
- C99U U104G — lower, -1.84
- C118A — within 0.2 log units, -0.751
- C118G — lower, -1.01
- C118U — higher, -0.256
- U102C U134G G136U A138U — lower, ≤ -4.2
- G126U C149U — lower, -1.96
- C99U G126U — higher, -0.0913
- U104G C118A A122C — lower, -2.35
- C114U A137C — lower, -3.52
- U104G A120C — higher, 0.532
- C96A A97G G143A — lower, -0.965
- C105A G140U — lower, -4.11
- A113U G117U — lower, -2.07
- C95U C99U — lower, -1.09
- U102C C114G — lower, -4.11
- A115U C118A — lower, -1.83
- C95U C132A — lower, -2.32
- C125G U127A — lower, -3.68
- C95U U102G C105U — lower, -2.98
- U109G A115U C125A — lower, -4.05
- A121G U144C — higher, -0.191
- C105U G140A — lower, -2.92
- C96G A97U C118A — lower, -3.08
- C105A — higher, -0.411
- C105G — within 0.2 log units, -0.829
- C105U — higher, 0.527
- U104A G143A — lower, -1.63
- C96G U102A U109C — lower, ≤ -4.2
- U104C A106G — within 0.2 log units, -0.701
- C95U U139G U148A — lower, -3.14
- C108U C114U — lower, -4.06
- U101A A115U G141A — lower, -2.17
- A107U G141C — lower, -3.87
- C96A U145A — higher, 0.431
- C96U C123U G136U — lower, -2.2
- A106G A113U U135G — lower, ≤ -4.2
- C105G G141C — lower, -2.56
- A106G A120U A121G A122G G143C — lower, -2.43
- U109A U151A — lower, ≤ -4.2
- G124U G136A — higher, 0.382
- G124U U134G — lower, -2.98
- C99U A115C — lower, -1.19
- A122G U139C — lower, -4.09
- C96G A115G C123A A147U — higher, -0.404
- G124C G143U — lower, -3.2
- A110C G136U — lower, ≤ -4.2
- C105A C125A — lower, -3.83
- G100U — lower, -2.58
- G100A — lower, -3.76
- G100C — lower, -3.72
- A98U C105U — higher, 0.54
- C96A A115C — lower, -0.888
- C96A A115U — lower, -2.29
- C95U U104G — lower, -2.11
- G126A G140A — lower, -3.54
- A97U U104G — lower, -0.956
- A122G G143A — lower, -1.03
- C96A C116U G136U A150G — lower, -4.06
- C99U U144A — lower, -1.02
- C96U C125U — higher, -0.382
- C96U C125A — higher, -0.0844
- C99U G143C — lower, -2.66
- G124A — higher, -0.246
- G124C — lower, -0.922
- G124U — higher, -0.432
- C118U A119U — within 0.2 log units, -0.842
- A119U U139C — lower, -3.94
- U104G A142G G152U — lower, -3.73
- A121G U135A — within 0.2 log units, -0.777
- C103G C123G G136U — lower, -2.77
- C103G — lower, -1.4
- C103A — lower, -1.23
- C103U — higher, -0.357
- C99A G143A — lower, -2.02
- C96U C99A G133C G141A — lower, ≤ -4.2
- C114U U151C — lower, ≤ -4.2
- C114U U151G — lower, -4.08
- C96A C118U U148C — lower, -2.57
- A97C C103G C114G — lower, -3.86
- U101G G128U U144G — lower, -4
- A119U G126A — higher, 0.174
- C95U U146G — lower, -1.04
- A106U U135A A150U — lower, -1.22
- C96G U148A — lower, -3.53
- C99G C108A A110G — lower, ≤ -4.2
- U109C C114U — lower, -3.87
- A97U U134G — lower, -2.5
- C116U U151C — lower, -4.04
- U127C U139C U151G — lower, ≤ -4.2
- A121C C123A U127C — lower, -1.91
- C116U G141U — higher, 1.29
- A119U G140U — lower, -3.25
- C99G A107C G143C — lower, ≤ -4.2
- A98G A107U — lower, -3.24
- U109G C125U C129U — lower, -4.06
- C125U U148G — lower, ≤ -4.2
- C96A C116U — within 0.2 log units, -0.662
- G100U A142C — lower, -4.17
- A107C C116G — lower, -3.74
- C99A U134G — lower, -2.57
- G117U U135C — lower, -2.36
- C116A A142C — lower, -3.92
- C114G G124C — lower, -4.13
- G126A A138C — lower, -3.73
- A113U C116U — lower, -1.33
- C99G A113C U135C — lower, ≤ -4.2
- C95U C149A — lower, ≤ -4.2
- U111A G124A U135C — lower, -3.76
- C99U A107U — lower, -3.88
- C99U A107G — lower, -4.16
- U102G G152U — lower, ≤ -4.2
- U109G A110C — lower, ≤ -4.2
- G100A A107U — lower, ≤ -4.2
- C99G U134C — within 0.2 log units, -0.713
- A98U G136U — lower, -2.64
- C95U C116G G133U — lower, ≤ -4.2
- A115U G136A — lower, -1.18
- U127G U134C — lower, -3.03
- C116A G140U — lower, -4.02
- U101G U134A U144C A150U — lower, -4.09
- A98U C105A A119G A121C — within 0.2 log units, -0.491
- C99U U145G — lower, -2.09
- C125A U134C U148A G152A — lower, -4.13
- C96A A97G — within 0.2 log units, -0.635
- C99A C131G — lower, ≤ -4.2
- C103G A115C A137G C149G — lower, ≤ -4.2
- C96G C116G — higher, 0.127
- C96G A120C — higher, 0.168
- C96G A120G — lower, -2
- C96U U146C — within 0.2 log units, -0.67
- C99G C116U — within 0.2 log units, -0.76
- C125G A142C — lower, -4.01
- C103G A120U U146G — lower, -1.37
- A115G G124C C132G A137U — lower, ≤ -4.2
- C105A U135C — lower, -2.39
- A115C G124U U144G — lower, -3.11
- A119G C125A — higher, 0.204
- C96A U134A — lower, -2.73
- C96U U102C C125U — lower, -2.51
- A98U A120U G143C — lower, -2.39
- G117U G143A — lower, -0.982
- C96G A98U — lower, -0.873
